Measurements reported in patent US20130252987A1, “METHOD OF REGULATING PLASMA LIPOPROTEINS” (MCMASTER UNIVERSITY, priority 2010, published 2013).

Legend:
[1] = test system: primary mouse hepatocytes from wildtype littermates; test: LDL receptor and PCSK9 protein in wild-type mouse hepatocytes; type: cell-based; settings: wild-type mice hepatocytes, 50 ng/mL, 24 hours
Experimental: Animal ethics approval was received for the mouse protocols to follow. Primary mouse hepatocytes from PCSK9 knockout mice (C57Bl/6 background) or their wildtype littermates were isolated by perfusing the liver via the hepatic portal vein with a 5 mM EGTA in Leffert's Buffer (10 mM Hepes; 3 mM KCl, 0.13 M NaCl, 1 mM NaH2PO4, 10 mM D-glucose) followed by a 0.3 mg/ml collagenase in 0.0279% CaCl2. Cells were then filtered through a 70 uM nylon strainer and centrifuged at 760 rpm for 5 min. The cells were then passed through a CHRM gradient (Invitrogen, NC). Viability of cells ranged from 80 to 95%. […] Mouse LDL receptor and PCSK9 protein in cell lysates were measured via immunoblotting, as described above, using the following primary antibodies: mouse LDL receptor (abcam, MA), mouse PCSK9 (abcam, MA) and mouse GAPDH (Cell Signaling, MA). […]
To then more directly quantify the role of PCSK9 in the resistin mediated reduction in hepatocyte LDL receptor levels, hepatocytes isolated and cultured from wild-type mice were treated with resistin, and compared to resistin-treated hepatocytes from PCSK9 knockout mice.

human hepatocytes = test: cellular apoB100 protein expression in primary human hepatocytes; type: cell-based; settings: 50 ng/mL, 24 hours
Experimental: (§1) Primary Cells: Fresh wild-type rat and mouse primary heptaocytes were supplied by CellzDirect (Invitrogen, NC) in a 6-well collagen coated plate. Upon arrival, the storage media was removed and incubation media (Williams E Medium, phenol red free, with incubation supplement pack, Gibco, NC) was added according to manufactures' instructions. The cells were incubated at 37° C. with 5% CO2 for 16 hours prior to human resistin (50 ng/mL) treatment for 24 hours. Cryopreserved plateable human hepatocytes, metabolism qualified from multiple normal human donors, were supplied by CellzDirect (Invitrogen, NC). Upon arrival, the cells (4-8 million in 1 mL), according to the manufacturer's instruction, were added to 48 mL warmed thawing medium (CHRM® Medium, Invitrogen, NC) and centrifuged at 100×g for 10 min at room temperature. The pellet was re-suspended in 4 mL plating medium (Williams E Medium, phenol red free, with maintenance supplement pack and 10% FBS, Gibco, NC). The cells were stained by Trypan Blue (Sigma, Canada) and counted by a haemocytometer, followed by seeding 1×10^6 cells/well in a 6-well collagen coated plate (CellzDirect, Invitrogen, NC). The cells were incubated at 37° C. with 5% CO2 for 4 hours to allow the cells to adhere. The plating media was replaced and cell incubated for 16 hours prior to human resistin treatment for 24 hours. […]

HepG2 cells [2] = test: real-time quantitative PCR of mRNA expression; type: cell-based, human
Experimental: Total RNA was isolated from cell lysates (RNeasy Mini Kit, Qiagen, Germantown, Md.) and used as a template for cDNA synthesis (QuantiTech Reverse Transcription Kit, Qiagen, Germantown, Md.). Quantitative real-time PCR was performed using an Applied Biosystems 7300 Real Time PCR system (Carlsbad, Calif.) according to the manufacturer's instructions and with the SYBR green master kit (Qiagen, Germantown, Md.). Primers for the real-time PCR internal control gene cyclophilin A (sense, 5′-[…]-3′ (SEQ ID NO:3); antisense, 5′-[…]-3′ (SEQ ID NO:4)) were synthesized (IDT, Coralville, Iowa). Primers for succinate degydrogenase (SDH) (another real-time PCR internal control gene), apoB, microsomal triglyceride transfer protein (MTP), Srebp1, Srebp2, acetyl-coA carboxylase (ACC), HMG-coA reductase, HMG-coA synthase, squalene synthase (SS), the LDL receptor, PCSK9, fatty acid synthase (FAS), […] (SCD), DGAT1 and DGAT2 were purchased (proprietary sequences not available) (Qiagen, Germantown, Md.). The values reported for each mRNA were corrected to the cyclophilin A and SDH mRNA values.
Total RNA was isolated from cell lysates (RNeasy Mini Kit, Qiagen, MD) and used as a template for cDNA synthesis (QuantiTech Reverse Transcription Kit, Qiagen, MD). Quantitative real-time PCR was performed using an Applied Biosystems 7300 Real-Time PCR system (Carlsbad, Calif.) according to the manufacturer's instructions and with the SYBR green kit (Qiagen, MD). Primers for the real-time PCR internal control gene cyclophilin A, as identified in Example 1, were synthesized (IDT, IA). Primers for succinate dehydrogenase (SDH) (another real-time PCR internal control gene), SREBP2, HMG-CoA reductase, the LDL receptor and PCSK9 were purchased (proprietary sequences not available) (Qiagen, MD). The values reported for each mRNA were corrected to the cyclophilin A and SDH mRNA values.

[3] = test system: mouse primary hepatocytes; test: cellular apoB100 protein expression in primary mouse hepatocytes; type: cell-based; settings: 50 ng/mL, 24 hours
Experimental: as §1

HepG2 cells [4] = test: cell viability, tryphan blue staining; type: cell-based, human; settings: 50 ng/mL or 100 ng/mL, 24 or 48 hours
Experimental: Cell viability was determined with 0.4% tryphan blue (Sigma-Aldrich, ON) staining and calculated using the following formula: % Cell Viability=(number of unstained (living) cells/Total number of cells)×100.
The next question was whether this amount of human resistin is toxic to hepatocytes. Tryphan blue staining of HepG2 cells upon 50 ng/mL of resistin treatment to determine cell viability was performed.

B1: human resistin: recombinant lyophilized purified human resistin (Calbiochem); cysteine-rich cytokine, single 12 kDa band (protein)
chain: KTLCSMEEAINERIQEVAGSLIFRAISSIGLECQSVTSRGDLATCPRGFAVTGCTCGSACGSWDVRAETTCHCQCAGMDWTGARCCRVQP
With B1 the PCSK9 levels [1] was “increased PCSK9 levels significantly”, the “decrease in LDL receptor protein levels compared with untreated hepatocytes” value [1] was 40% and the “increase in cellular apoB protein expression versus untreated control cells” value (human hepatocytes) was 40-50%. The “apoB mRNA expression” value (HepG2 cells [2]; 50 ng/mL, 24 hours) was “significant increase”, the “expression of DGAT1” value (HepG2 cells [2]; 50 ng/mL, 24 hours) was “increased to smaller but significant extents” and the “expression of SCD” value (HepG2 cells [2]; 50 ng/mL, 24 hours) was “increased to smaller but significant extents”. For the same molecule, the “expression of the LDL RECEPTOR gene” value (HepG2 cells [2]; 50 ng/mL, 24 hours) was “increased”, the “expression of the PCSK9 gene” value (HepG2 cells [2]; 50 ng/mL, 24 hours) was “increased” and the “increase in the expression of ACC” value (HepG2 cells [2]; 50 ng/mL, 24 hours) was 3 fold. For the same molecule, the “increase in the expression of HMG-CoA REDUCTASE” value (HepG2 cells [2]; 50 ng/mL, 24 hours) was 2 fold, the “increase in the expression of HMG-CoA SYNTHASE” value (HepG2 cells [2]; 50 ng/mL, 24 hours) was 2 fold and the “increase in the expression of SQUALENE SYNTHASE” value (HepG2 cells [2]; 50 ng/mL, 24 hours) was 2 fold. The “mRNA expression of SREBP1” value (HepG2 cells [2]; 50 ng/mL, 24 hours) was “significantly increased”, the “mRNA expression of SREBP2” value (HepG2 cells [2]; 50 ng/mL, 24 hours) was “significantly increased” and the “apoB mRNA expression” value (HepG2 cells [2]; 100 ng/mL dose, after dose-response increase from 0 to 50 ng/mL) was “decreased”. For the same molecule, the “increase in cellular apoB protein expression versus untreated control cells” value [3] was 40-50% and the hepatocyte viability (HepG2 cells [4]) was “no marked reduction”.
